From publication PMC535902 come the findings set out here.

Test [1] has as its target Rhodobacter capsulatus porphobilinogen synthase (Rhodobacter capsulatus) (UniProt P42504). The test is described as follows: SEC; Superose 6 (10 x 300 mm), 0.5 ml/min, 100 mM BTP pH 8.6, 100 uL of a 200 ug/ml solution; column calibrated with standards.
The target is the same in test [2].
The target is the same in test [3]. The test is described as follows: AUC; sedimentation equilibrium, 4 °C, 10 mM Tris-HCl pH 7.7 with 0.1 mM DTT or 1 mM βME, 12.3 uM in monomer (440 ug/ml), 8,000-14,000 rpm, global fit to a single species model.

For “Rhodobacter capsulatus porphobilinogen synthase (from UniProt P42504 1-332) (enzyme)”, the stoichiometry N in test [1] and in test [3] was 6 each time. In test [2], this substance displayed a specific activity of the enzyme against protein concentration (0.01 to 40 ug/ml; from ~150 at the lowest to ~450 umol h^-1 mg^-1 at the highest) (μmol h^-1 mg^-1) of 450.

What is called stoichiometry N is a count of units in the complex or per binding partner.
